Square brackets hold non-standard residues; d marks the D form. Side chains are listed from the residue outwards. Ends that are not written are not given here. Peptide text beside a SMILES is read from it. * marks the point of attachment. maleimide = maleimide: 4-arm PEG5k maleimide reacting with the C-terminal Cys thiol; Cbz = O=C(OCc1ccccc1)*; CH2F = FC*
B1: AHP-01 (peptide)
peptide: WTLSINS
notes: heptapeptide selected from a random phage display library against DR6; source: synthetic peptide (SPPS)
B2: AHP-03 (peptide)
peptide: YLPAPLP
notes: as for B1
B3: AHP-05 (peptide)
peptide: YYSGNNL
notes: as for B1
B4: AHP-10 (peptide)
peptide: NGSTHER
notes: as for B1
B5: AHP-13 (peptide)
peptide: SHTDTNQ
notes: as for B1
B6: AHP-23 (peptide)
peptide: GGLSMTR
notes: as for B1
B7: AHP-24 (peptide)
peptide: NHQRLLP
notes: as for B1
B8: AHP‐12 (peptide)
peptide: TIDATTP
notes: heptapeptide selected from a random heptapeptide M13 phage display library against DR6; also called AHP-12 (TIDATTP); source: synthetic peptide (SPPS, HPLC purified)
B9: AHP‐DRI‐12 (D‐retro‐inverso isomer of AHP‐12) (peptide)
peptide: [dP][dT][dT][dA][dD][dI][dT]
notes: Peptidomimetic made of D-amino acids; source: synthetic peptide (SPPS, HPLC purified)
B10: PEG‐tAHP‐DRI (tetra‐(D‐retro‐inverso isomer of AHP‐12) substitued 4‐arm PEG5k) (other)
peptide: [dP][dT][dT][dA][dD][dI][dT]C([maleimide-4‑arm PEG5k])
modifications: also: four peptides on one 4-arm PEG5k
notes: additional Cys residue at the C-terminal, coupled to the maleimide of the PEG arm; Four peptide chains on one 4-arm PEG5k, not a polypeptide oligomer; also called PEG‐tAHP‐12; PEGylated tetrameric AHP‐DRI‐12; source: synthetic peptide conjugated to 4-arm PEG5k maleimide, dialysed

biological target: T1, DR6 protein (Homo sapiens, UniProt O75509); assay: KD of DR6-targeting peptides for binding to DR6 protein by MST; settings: Tables S1 and S2, average of three independent experiments in triplicate, NB = No binding, read-out: KD ± SEM
T1 construct: purchased Sino Biology, Inc. (Shanghai, China)
T1 sequence (O75509 42-655): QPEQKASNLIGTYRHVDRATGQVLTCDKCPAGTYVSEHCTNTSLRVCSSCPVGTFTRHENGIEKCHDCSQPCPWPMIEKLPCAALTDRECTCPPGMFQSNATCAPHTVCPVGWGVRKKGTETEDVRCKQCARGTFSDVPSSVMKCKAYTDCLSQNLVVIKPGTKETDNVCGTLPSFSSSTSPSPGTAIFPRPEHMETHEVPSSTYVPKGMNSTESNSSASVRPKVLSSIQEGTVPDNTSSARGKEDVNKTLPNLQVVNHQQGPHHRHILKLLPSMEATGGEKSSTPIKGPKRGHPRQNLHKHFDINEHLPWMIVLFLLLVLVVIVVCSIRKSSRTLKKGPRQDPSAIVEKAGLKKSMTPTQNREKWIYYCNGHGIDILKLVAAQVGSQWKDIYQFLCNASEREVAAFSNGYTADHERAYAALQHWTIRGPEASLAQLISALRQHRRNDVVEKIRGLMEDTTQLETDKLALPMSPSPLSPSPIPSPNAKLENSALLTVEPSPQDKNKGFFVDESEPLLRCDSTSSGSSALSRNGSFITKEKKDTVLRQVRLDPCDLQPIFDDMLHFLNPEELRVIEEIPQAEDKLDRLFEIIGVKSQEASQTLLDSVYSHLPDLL
Procedure: For labeling DR6 protein with Red‐tris‐NTA second‐generation dye, equal volume of DR6 protein (200 × 10^–9 M) and dye (100 × 10^–9 M) were mixed. The solution was incubated for 30 min at room temperature and centrifuged for 10 min at 4 ℃ and 15 000 × g. The DR6 protein was labeled and ready for the binding assay. Prepare 25 µL of the DR6‐targeting peptides at 20 × 10^–6 M and add 10 µL of the PBS‐T into the PCR tubes 2–12. Transfer 20 µL DR6‐targeting peptides into the PCR tube 1 and then transfer 10 µL of the DR6‐targeting peptides from tube 1 to tube 2 with a pipette and mix by pipetting up and down multiple times. Transfer 10 µL to tube 3 and mix. Repeat the procedure for tube 4–12. Add 10 µL of labeled protein to each tube (1–12) and mix by pipetting. The final DR6 protein concentration was 50× 10^−9 M. Load the capillaries and measure the samples by NanoTemper Monolith NT.015.^[ ^51 , ^52 ^]

Molecule | Kd
MPPFRHD [AHP-19] | > 10 µM
TIPKYER [AHP-15] | > 10 µM
TTYMPKM [AHP-18] | > 10 µM
YSLHASP [AHP-07] | > 10 µM

biological target: T2, death receptor 6 (DR6) protein (UniProt O75509 42-349, labelled with RED-tris-NTA second-generation dye); assay: MST; DR6 protein labelled with RED-tris-NTA second-generation dye, final 50 x 10^-9 M; peptide prepared at 20 x 10^-6 M, diluted serially 1:1 in PBS-T over 12 tubes and mixed with an equal volume of labelled DR6; NanoTemper Monolith NT.015; settings: both partners purified
T2 construct: death receptor 6 (DR6), bought recombinant protein; source: bought: Sino Biology, Inc. (Shanghai, China)
T2 sequence (looked up): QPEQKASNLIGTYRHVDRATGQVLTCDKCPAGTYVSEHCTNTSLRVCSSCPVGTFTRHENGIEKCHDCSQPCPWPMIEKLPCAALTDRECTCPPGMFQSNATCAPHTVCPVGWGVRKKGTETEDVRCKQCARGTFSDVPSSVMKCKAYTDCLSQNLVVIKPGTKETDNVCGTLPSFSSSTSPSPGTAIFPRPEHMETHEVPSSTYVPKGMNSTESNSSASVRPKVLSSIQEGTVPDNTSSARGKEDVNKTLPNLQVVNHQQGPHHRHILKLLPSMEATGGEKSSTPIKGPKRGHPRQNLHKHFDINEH

Molecule | Kd
B1 | 1.15 µM
B2 | 0.689 µM
B3 | 1.1 µM
B4 | 0.528 µM
B5 | 1.15 µM
B6 | 4.46 µM
B7 | 1.09 µM

tested on: TCs over HUVECs monolayer; assay: Transendothelial migration of TCs over HUVEC monolayer; type: cell-based, human; settings: AHP-DRI-12 and PEG-tAHP-DRI 1 × 10^−6 M (AHP-DRI-12), Nec-1 30 × 10^–6 M, zVAD 100 × 10^–6 M; 48 h; compared with control; n = 3
Procedure: HUVECs (1 × 10^5) in DMEM were added into 24‐well plate transwell upper chambers and the medium was changed every 2 days. Using the EVOM resistance tester, the transendothelial resistance was measured daily. When the TEER resistance value was >200 Ωcm^2, the cells grew into a monolayer of tight connection. 2 × 10^5 GFP‐TCs were added into upper chambers. One milliliter DMEM containing 10% FBS was added into lower chambers overnight. AHP‐DRI‐12 and PEG‐tAHP‐DRI (1 ×10^–6 M AHP‐DRI‐12), Nec‐1 (30 × 10^–6 M), and zVAD (100 × 10^–6 M) were added in upper chambers, respectively. After incubation for 48 h, cells in lower chambers were observed by fluorescence microscope.^[ ^56 ^]

Molecule | TCs transendothelial migration
COC(=O)C[C@H](NC(=O)[C@H](C)NC(=O)[C@@H](NC(=O)OCc1ccccc1)C(C)C)C(=O)CF [zVAD, z‐VAD‐fmk, reference compound] (Cbz-Val-Ala-Asp(OMe)-CH2F) | increased number of migrated TCs

biological target: hERG potassium channel (Homo sapiens, UniProt Q12809); assay: Whole-cell patch clamp recording of hERG current; type: cell-based; settings: cisapride as positive control
Sequence (Q12809 whole entry): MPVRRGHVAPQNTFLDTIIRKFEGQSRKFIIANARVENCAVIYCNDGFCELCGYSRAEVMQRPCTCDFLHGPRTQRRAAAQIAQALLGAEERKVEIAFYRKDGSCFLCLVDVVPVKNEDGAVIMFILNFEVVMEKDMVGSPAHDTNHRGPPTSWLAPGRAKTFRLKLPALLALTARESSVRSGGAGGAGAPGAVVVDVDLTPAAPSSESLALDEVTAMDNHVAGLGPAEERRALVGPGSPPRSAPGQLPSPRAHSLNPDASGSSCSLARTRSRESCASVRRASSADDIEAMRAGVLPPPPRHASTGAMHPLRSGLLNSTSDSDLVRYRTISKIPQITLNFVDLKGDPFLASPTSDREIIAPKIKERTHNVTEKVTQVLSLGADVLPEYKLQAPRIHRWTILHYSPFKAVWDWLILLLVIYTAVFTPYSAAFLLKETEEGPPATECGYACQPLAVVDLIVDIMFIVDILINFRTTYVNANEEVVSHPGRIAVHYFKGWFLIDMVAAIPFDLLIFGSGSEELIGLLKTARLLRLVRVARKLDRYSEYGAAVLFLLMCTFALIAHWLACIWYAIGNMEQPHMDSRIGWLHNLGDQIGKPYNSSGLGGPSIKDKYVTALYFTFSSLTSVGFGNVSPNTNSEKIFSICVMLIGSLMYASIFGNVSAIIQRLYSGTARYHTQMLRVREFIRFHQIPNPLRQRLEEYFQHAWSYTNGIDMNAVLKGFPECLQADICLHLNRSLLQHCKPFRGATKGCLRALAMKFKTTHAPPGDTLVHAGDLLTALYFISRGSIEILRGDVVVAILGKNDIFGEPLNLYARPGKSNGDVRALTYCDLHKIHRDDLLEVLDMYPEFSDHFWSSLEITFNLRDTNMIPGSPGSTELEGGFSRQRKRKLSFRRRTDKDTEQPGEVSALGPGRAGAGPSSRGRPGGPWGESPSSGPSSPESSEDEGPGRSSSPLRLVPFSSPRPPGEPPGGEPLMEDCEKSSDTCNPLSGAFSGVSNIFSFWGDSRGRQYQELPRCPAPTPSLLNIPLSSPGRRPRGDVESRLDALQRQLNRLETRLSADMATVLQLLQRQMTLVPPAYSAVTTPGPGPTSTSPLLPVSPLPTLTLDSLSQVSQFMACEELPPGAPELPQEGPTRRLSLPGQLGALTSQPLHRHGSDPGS
Procedure: In addition, some common adverse effects suffered by frequently used medications were also evaluated. The whole‐cell patch clamp recording technique was used to record the whole‐cell hERG‐potassium to measure the cardiac toxicity of peptidomimetic agents on hERG potassium channel by utilizing cisapride as positive control (Figure 6E; Figure S10, Supporting Information). […] Meanwhile, the blood biochemical indexes of ligand‐treated mice sacrificed on day 2 or day 15 were tested to examine the influences of peptidomimetic agents to liver and kidney (Figure S11, Supporting Information).

Molecule | inhibitory effect on hERG channels
CC[C@@H](C)[C@@H](NC(=O)[C@@H](CC(=O)O)NC(=O)[C@@H](C)NC(=O)[C@H](NC(=O)[C@H](NC(=O)[C@H]1CCCN1)[C@H](C)O)[C@H](C)O)C(=O)N[C@@H](C(=O)O)[C@H](C)O [AHP-DRI-12] (H-[dP][dT][dT][dA][dD][dI][dT]-OH) | no significant inhibitory effect

tested on: HUVECs; assay: Apoptosis analysis, annexin V-FITC/PI flow cytometry; type: cell-based, human; settings: 24 h, rhTRAIL 100 ng mL^–1 as positive control
Procedure: To evaluate the number of apoptotic cells after treatment of AHP‐DRI‐12 and PEG‐tAHP‐DRI, 5 × 10^5 HUVECs were seeded in six‐well plates and treated with rhTRAIL (100 ng mL^–1, Peprotech) or AHP‐DRI‐12 and PEG‐tAHP‐DRI (0.1 × 10^–6, 1.0 × 10^–6, 10 × 10^–6 M AHP‐DRI‐12). After incubating for 24 h, HUVECs were harvested and resuspended in 100 µL binding buffer, and then stained with FITC‐labeled annexin V and propidium iodide (PI) (BD Biosciences) according to the manufacturer's instructions. The apoptotic number of HUVECs was measured by flow cytometry.

Molecule | HUVECs undergoing apoptosis
TRAIL | 30%

biological target: T3, death receptor 6 (DR6) protein (UniProt O75509 42-349, labelled with RED-tris-NTA second-generation dye); assay: MST; DR6 protein labelled with RED-tris-NTA second-generation dye, final 50 × 10^-9 M; peptides prepared at 20 × 10^-6 M and diluted serially 1:1 over 12 tubes in PBS-T; NanoTemper Monolith NT.015; settings: both partners purified
T3 construct: death receptor 6 (DR6), bought recombinant protein; It is probably a soluble extracellular construct, but that is a surmise; source: bought: Sino Biology
T3 sequence (looked up): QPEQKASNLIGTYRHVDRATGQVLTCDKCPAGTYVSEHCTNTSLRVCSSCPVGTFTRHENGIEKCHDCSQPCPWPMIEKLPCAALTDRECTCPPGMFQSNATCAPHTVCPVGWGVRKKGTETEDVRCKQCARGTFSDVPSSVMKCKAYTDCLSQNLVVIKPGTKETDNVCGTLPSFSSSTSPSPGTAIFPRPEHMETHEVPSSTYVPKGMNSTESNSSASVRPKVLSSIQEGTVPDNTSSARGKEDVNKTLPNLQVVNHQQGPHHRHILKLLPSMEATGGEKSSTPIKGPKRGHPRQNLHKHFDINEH

Molecule | Kd
B8 | 0.322 µM
B9 | 0.225 µM
B10 | 0.0511 µM

tested on: not listed separately; assay: In vivo safety analysis in healthy mice; set-up: species or system C57BL/6 mice; settings: healthy mice, intravenous, 0.2 µg g^–1 AHP-DRI-12; sacrificed day 2 or day 15
Procedure: For evaluating the toxicity of peptides in vivo, 6 week old healthy mice were intravenously injected with AHP‐DRI‐12 and PEG‐tAHP‐DRI (0.2 µg g^–1 AHP‐DRI‐12). After 2 and 15 days, mice were sacrificed and serum samples were collected for the biochemical analysis (ALT, AST, BRU, and URE). Tissue samples from various organs were collected for tissue sections. The tissue sections were analyzed by H&E staining and immunohistochemistry analysis.

Molecule | damage to liver or kidney, blood biochemical indexes (ALT, AST, BRU, URE)
CC[C@@H](C)[C@@H](NC(=O)[C@@H](CC(=O)O)NC(=O)[C@@H](C)NC(=O)[C@H](NC(=O)[C@H](NC(=O)[C@H]1CCCN1)[C@H](C)O)[C@H](C)O)C(=O)N[C@@H](C(=O)O)[C@H](C)O [AHP-DRI-12] (H-[dP][dT][dT][dA][dD][dI][dT]-OH) | could not cause any damage to liver or kidney

tested on: not listed separately; assay: Pharmacokinetic study after intravenous injection; type: in vivo; settings: SD rats, FITC-labeled, blood samples 0.5-72 h, microplate reader, n = 3
Procedure: To investigate the pharmacokinetic profile of AHP‐DRI‐12 and PEG‐tAHP‐DRI, SD rats were intravenously injected with FITC‐labeled AHP‐DRI‐12 and PEG‐tAHP‐DRI and blood samples were collected at 0.5, 1, 2, 4, 6, 24, 30, 48, 54, and 72 h. The DR6‐targeting peptide level of blood samples was measured by a microplate reader.

Molecule | half-life (T1/2)
CC[C@@H](C)[C@@H](NC(=O)[C@@H](CC(=O)O)NC(=O)[C@@H](C)NC(=O)[C@H](NC(=O)[C@H](NC(=O)[C@H]1CCCN1)[C@H](C)O)[C@H](C)O)C(=O)N[C@@H](C(=O)O)[C@H](C)O [AHP-DRI-12] (H-[dP][dT][dT][dA][dD][dI][dT]-OH) | 7.8 h

biological target: T2, death receptor 6 (DR6) protein; assay: MST; DR6 protein labelled with RED-tris-NTA second-generation dye, final 50 x 10^-9 M; peptide prepared at 20 x 10^-6 M, diluted serially 1:1 in PBS-T over 12 tubes and mixed with an equal volume of labelled DR6; NanoTemper Monolith NT.015; settings: both partners purified; remark: another data set of the same source

Molecule | Kd
B5 | 0.457 ± 0.0116 µM
